From the DeepSol protein solubility set come the findings set out here.

The series is described as follows: soluble on expression in E. coli; label from the status in PepcDB or PDB records.
Turning to “MPLEASELKPTAGPLEASELKPTAGPLEASELKPTAGPLEASELKPTAGPLEASELKPTAGPLEASELKPTAGPLEASELKPTAGMPSVQQDITHPKELLISTNWLNRKDVPFMNNQEQQIQNVLNTLRDPDTIRTRSHRILNLAKQNRLEHFSLNPERMTTTASYIVDIITSRYPELDIPYHSRWRHFEMDGLPRIHNLRKQLDPISPSEWGKILYELVIISVFLDAGAGPLWRYKEALTEKEYSRSEGLALASLYLYESGAFSADPTNPFRVDAERLLDFKETDLIKGFQVSSTNLLEGIPGRVSLLNRLGEIIHRKEHCFNRRKRLGEFYTYVESLQDNKILPTTKLFEAVLETFNDIWPVRLIYHGVSLGDVWIHSALKTNEAGSEYIPFHKLSQWLTYSLVEPLEQTGIDIADLDVLTGLPEYRNGGLLIDTELLKVRNNKILEQPQDPGSEPIVEWRALTVALLDELALLIRQQLNMNAESLPLAKILQGGTWEAGRQIAQKKRINGTPPIEIISDGTIFLEHHHHHH”, the “soluble on expression in E. coli” value is reported as “not soluble”.
For the sequence “MGSDKIHHHHHHMRNYCRWCENDPLLIAYHDKEWGQREGNDQRLFEAMCLELFQSGLSWKTVLQKRDSIRKAFHHFELEKVATMNEQDVERLLKDKGIIRHRKKIEATIQNSRNVVRLQREFGSFREWIESLPNDVEAKAAMISEMFTYMGPITAKSFLEATGFIPVEHDKQCHLFEGKSLQIKPIGTADRGEVQQFFHQHWGSPEMVLSTGVFHCERLPGFLYRNKLGEIIGLITYVTHGKRSIEIISLDSVEEGKGIGTSLLQAVEAEAIEQQVRQIEVITTNDNLHALGFYQKRGFQLKELVVNGVEKARQLKPSIPRKSADGIPIRDELKLVKTMR”, the “soluble on expression in E. coli” value is “not soluble”.
Take “GPGSMYRLFSCCKTNELKRLFSHALDASIKNEGVAQQRKRQVLPRRHRKLHKLTIREENEEGLRDFLPPKPVVPAGWKLEHVKGSNRFDLRKSVEIRDCGKEHLHAVAMMEVKEYEGTYRMDNGEREEEEYLFFTLFVQKNRFPGALEFGLTSIDMELVMDSLAIHNNREELEDAYGALSVSTSRNGTSNRIIEKSNLSCRSCRDNRYRGPMLSELDDDFSDEILDYLDERGVNNGFAEYMMAQAHFFEQEEYINWIRLLRQFAQ”: the “soluble on expression in E. coli” value is listed as “not soluble”.
In the case of “MIKDILNTIASLVEENVVVFASERGKQLLQKVKADLVSFKPINFYALDAGKQITDALKLIESYCIEMNRIFDELNHQSSVSLANEKLTHKIKNILTNLKNKQNKITQLREKIPEGMLDIKRALYIVENSFLSESEPEEKELRSKFKRIKKFMSNSNKEYLDLIKKGGLLNTVLLDTTTLYWNQLHEYSTLLNQCRITLQKSHHLTKEGQLALRCFNSAIQKMPPKKHIINALKILNKPNSKTEAIEKIGFVSPHGREACMQLTCWGKKFFYIPRSEEMYHFDYDPKEDLNETGGNCFGESMMFIHFLSKGAIRWLCPEAGLINFQLDQTRNLKFKKATLGEGETLVSDNSPHDSLEWEDMRPVLLDNPYFKPGSLCGVIFSMNDYTKAKREFTAGHMIVVAKLDTNLNPYKYIIYEKDFGAFGLTDDESLEYLISEQILPLYRGMNYSKIKLVKYGEASTETYDLLNKIKPQTGIPQKESTASDSINTYFDNAFFKLSKETNKENVIDQVNQTDVFGFCRN”, the “soluble on expression in E. coli” value is recorded as “not soluble”.
For “MGSDKIHHHHHHMERHTVNEIEIFTIPFDKARTISCAFLIKKGSAHEPEELAGISHFIEHMAFRGTKSYDHFSLKYTVEVVGGTLNAFTDKLATAYYAKVPEFHFGKTLNVLKEITFYPIFSPEDTEIERKIILEEYKMSQDDPTSKLFDTLVETVWPGPYGRPIIGRKETIEKISSEDLREYHRKNYNLPDTKIILAGKVNDDYLSLLEKELSELERNKPGDPLPPPPSFEHTEPRYIVRNDLEQVHIAMARPICGRISEDIYPLYALNTALGSGMSSILFHEIREKEGFVYDVFSQIYALKETGIIIVYAALSPEKIDEFFSKMKDVLSNESLFMKNFEYGKMRYLGKLDMVTDNPAGMMSFVIDDLSNDSLETIEERVERIKNVSKEDYRRAYERFIAGNWSVFGIGPESGKIIEKHEMIV”, the “soluble on expression in E. coli” value is recorded as “not soluble”.
As for “MNYPVNPDLMPALMAVFQHVRTRIQSELDCQRLDLTPPDVHVLKLIDEQRGLNLQDLGRQMCRDKALITRKIRELEGRNLVRRERNPSDQRSFQLFLTDEGLAIHQHAEAIMSRVHDELFAPLTPVEQATLVHLLDQCLAAQPLEDI”, the entry is “soluble”.
For the sequence “MSLSAGETDERLRIATTTSLYDTKLLDTLESRFEEKYGIEVDVISGGTGFALEQGRRGDVDLLLVHDKAREYEFIAEGYGTERRCFAYNYFYIVGPADDPAGIKGTNASEAFRMIADAGEKNSNVRFVSRGDNSGTHAREKLLWKSAGIEPSGSWYLESGQGMGATLIMVDEKRAYTLTDMSTYMAFAGNLSLVPLVTESEELLNVYAAIPVSASEHLDDAERFVEFLLSQEGQEIIAGYGKDIYGRALFYPAAGHCTEIGCNATECPGEMVSAFGEGHHHHHH”, the “soluble on expression in E. coli” value is listed as “soluble”.
For “MGSDKIHHHHHHMNFKQLNYFLVVAEEGQITSAAKRLFVGQPALSYQLKQLEEELGAKLFIRQPYGIELTEAGKKLRDYAGQILTLAQNVQTEITELDRGGWGRVKLGSVSSSIGELPSAKLTAFARQHPGVSFDIYEDNTFGILDKLQGNLLDLAIVRTPYNRVNLNFVDISDEPMTAVTCQDFFPGKGKVGLQDLAGQPLVIYRRFEDMFKEAFAEKGLTPNFVVKCDDSRTAIRWSDSGLGIALVPESIAKTYARGHIYPIDLAKWRTRLQLVWRKDRVVTPLMRQIIALYAK”, the “soluble on expression in E. coli” value is reported as “not soluble”.
As to “MALSTLNREVIKKNLQNEEYDVVIIGGGITGAGIALDASQRGMKVALVEMQDFAQGTSSRSTKLVHGGLRYLKQAQIKVVAETGKERAIVYENGPHVTTPEWMLLPMHKGGTFGKFTTNLGLTAYDRLAGVKKYERKKMLSKKQTLNKEPLVKKDGLKGGGYYVEYRTDDARLTIEVMKRAEENGAEILNHTKSTDFIYDSKSKVRGIEVQDLLTGEMYEINAKKVINAAGPWVDEVRKKDYTRNNKQLRLTKGVHVVIDQSKFPLRQAVYFDTEKDGRMIFAIPREGKAYVGTTDTFYDNDKTKPLTTQEDRDYLIDAINYMFPDVNVKDEDIESTWAGVRPLILEDGKDPSEISRKDEIWEGKSGLLTIAGGKLTGYRHMALEIVDLLAKRLKQEYKLTFAECKTKHTPISGGDVGGSANFESFVERKVEEGKAIGLQADVAKRLASKYGSNVDKLYNIAQIAQDKDLKLPLELYVELVYSVQNEMVFKPTDFLIRRSGKLYFNINEVKQYKDAVVEELAKLLNYTQSQQNEFTKEINIAIEEATRGNEQLAVLKLEHHHHHH”, the “soluble on expression in E. coli” value is “soluble”.
“MKDYRYALPAMMSVRKGESRYFNRGDQHLMNEILARVRAEGKIRLRDIDKKNKESLGNWWNTGPGRRAFEQLYMQGDLMICERNGMEKVYDLTERCLPENIDLSLPTLYEYAQYLFNNTLRAHGAFTWKQLVHLKKNDLKETMRVVLKEQIDAGVVSAIKLADGQNLYVDVTAIEQQLDTDFGLKILSPFDNSLIHRDRLTSLFEFDYRIECYLPAAKRVFGYFCLPILYQNELVGRIDCKAHRTVKELEVISLHLEKTVKDKEHFFFELDQELKRFAAFNQCSTVNDKVVKLIRSKLLEHHHHHH”: the “soluble on expression in E. coli” value is “not soluble”.
Regarding “SLETYGDSLATAVAERWNNHQAFIFGLATGAVVRLIAPLLQSKQSDPAVLVVDAMGQSVISLLSGHQGGGDRLAQIVAEQLQAKAILTGGANGLGQIAVDCLGIPFGWRKGKGDWTAVSSALAAQKLVGVTQTAGLTLWQNHLPPGHGFTFSGTKETTATLLITVQESNLEKLNKPMAPWHPRLLWIGVGCVRGTDLALLERALLEVLERENLSPLAIAGLASVHLKADEVGMQQFAQKYDLPFFTFPPEQLAAQAVPNPSEVVLQEVGTPSVAEAAALTAAQMYSQGGKLIAEKVIVKQHNQAVTVAIAKGE”, the “soluble on expression in E. coli” value is “not soluble”.
Then “MKENDLIPNVKVMIDVRNMNNISDTDGSPNDFTSIDTHELFNNKKILLISLPGAFTPTCSTKMIPGYEEEYDYFIKENNFDDIYCITNNDIYVLKSWFKSMDIKKIKYISDGNSSFTDSMNMLVDKSNFFMGMRPWRFVAIVENNILVKMFQEKDKQHNIQTDPYDISTVNNVKEFLKNNQL”, with “soluble”; and “MADKKAPAAGWPVANGEYVVGNPESCVAVITLGSHGLDQAAIDAGAAISGPCHTENLGIEKVVANYISNPNIRFMVIAGSEVQGHITGQCIKALYENGIGDDGGIIGAKGAIPFMENVGKEPVGRLQTQVVECIDLIDVEDKGKIADAIKNCISKDPGAFEEDPMVIELEGGAAAAGDEEGGLMIEGIPTVAEPDIESIKSLNEALDYKVGLMTRDLGLASGVQTETVTG”, with “not soluble”.
Consider “MGSDKIHHHHHHMIDLKQYEFWFLVGSQYLYGLETLKKVEQQASKIVDSLNDDPIFPSKIVLKPVLKSSSEITEIFEKANADPKCAGVIVWMHTFSPSKMWIRGLSINKKPLLHLHTQYNREIPWDTIDMDYMNLNQSAHGDREHGFIHARMRLPRKVVVGHWEEKEVREKIAKWMRVACAIQDGRMGQIVRFGDNMREVASTEGDKVEAQIKLGWSINTWGVGELAERVKAVPEREVEELLKEYREKYIMPEDEYSLKAIREQAKIEIALREFLKEKNAVGFTTTFEDLHDLPQLPGLAVQRLMEEGYGFGAEGDWKAAGLVRAIKVMGTSLPGGTSFMEDYTYHLTPGNELVLGAHMLEVCPTIAKEKPRIEVHPLSIGGKADPARLVFDGQEGPAVNASIVDMGNRFRLVVNKVLSVPIERKMPKLPTARVLWKPLPDFKRATTAWILAGGSHHTAFSTAIDVEYLIDWAEALEIEYVVIDENLDLEDFKKELRWNELYWGLLKR”, for which the “soluble on expression in E. coli” value is given as “not soluble”.
“MNKPVSSIPQSKEELELAINSIFDKLMADYRTIPVELTRERNVEGNIKGTQVSVCDTVAYLIGWGKLVLKWHRLKAQGLPVEFPESGFKWNQLGLLAEHFHEQYADWKYEALLKELESTVNELLSLISSLSNYDLYETTWYDKWTLGRMIQFNTSSPMKNMRSKVRRFKKNKGLLLEHHHHHH”: the “soluble on expression in E. coli” value is on record as “soluble”.
With “MAKEWGYASHNGPDHWHELFPNAKGENQSPIELHTKDIRHDPSLQPWSVSYDGGSAKTILNNGKTCRVVFDDTYDRSMLRGGPLPGPYRLRQFHLHWGSSDDHGSEHTVDGVKYAAELHLVHWNPKYNTFKEALKQRDGIAVIGIFLKIGHENGEFQIFLDALDKIKTKGKEAPFTKFDPSSLFPASRDYWTYQGSFTTPPCEECIVWLLLKEPMTVSSDQMAKLRSLLSSAENEPPVPLVSNWRPPQPINNRVVRASFKHHHHHH”, the “soluble on expression in E. coli” value was “soluble”.
With “MTDQGLEGSNPVDLSKHPSGIVPTLQNIVSTVNLDCKLDLKAIALQARNAEYNPKRFAAVIMRIREPKTTALIFASGKMVCTGAKSEDFSKMAARKYARIVQKLGFPAKFKDFKIQNIVGSCDVKFPIRLEGLAYSHAAFSSYEPELFPGLIYRMKVPKIVLLIFVSGKIVITGAKMRDETYKAFENIYPVLSEFRKIQQ”, the “soluble on expression in E. coli” value was “soluble”.
As for “MGSDKIHHHHHHMMRRRLPSLIALRAFEAVGRTGSVRAAGDELAVSHTVVSRHLQNLQKFLGVALVRGEGRGVILTEAGVSFHAQISQAFDIIARATTAARPSSLPTLNIWCIPGIANRLLLSRLPELTGPPRNWEVNLQPTLTHPDLSRAEADAEIVYADVIDSRGPLMSEILVRPRVFPVASPAYLARYPAITSLEDLSQIALIHEESTMQWTRWFELAGLDDLPPLRGQRLWHAHLAIEAARLGQGVALANDVLVEEDLRSGALVEVITSSVYMETYQLVALKERWDDPAIVALRNWLKQVLAELE”, the entry is “not soluble”.
